# Results as given in US20210147523A1 (TEIJIN PHARMA, published 2021).
# Numbering of substitutions follows the chain as printed.
# B1: 80-1104A (antibody, IgG2b, V domains shown)
# VH: EVQLVETGGGLVQPGSSLKLSCSTSGFTFSETWMSWVRQAPGKGLEWVGLIKDKNSNYEANYAESVKGRFTISRDDSKRRVYLQMYTLRDQDTATYYCTSHEDFYYYSSYYFDYWGQGVMVTVSS
# VL: DIVLTQSPATLSVTPGESVSLSCRASQGISTSIHWYQQKSNESPRLLIKYASQSMSGIPSRFSGSGSGTDFTLRINRVESEDFSVYYCQQSYNLPLTFGSGTKLEIKR
# B2: 96-1403F (antibody, IgG2b, V domains shown)
# VH: B1 VH with Q13R, S23A, E31D, G49A, Y58S, V66I, R79S, Y86N, S100R, S109G
# VL: B1 VL with A9P, K39R, M55I, S56A, T72I, R74S, S91T, N93S, S100P, I106V
# B3: 93-1310F (antibody, IgG2b, V domains shown)
# VH: B1 VH with S23A, E31D, G49A, Y86F, Q117H
# VL: B1 VL with E42G, M55I, S91T, N93S, K103R
# B4: 65-0810G (antibody, IgG2b, V domains shown)
# VH: EVHLVESGGGLVQPGRSMKLSCTASGFTFNNYYMAWVRQAPTKGLEWVASISTGGGYTYYRDSVKGRFTISRDNTGNTLYLQMDSLRSEDTATYYCARCWELPYWGQGVMVTVSS
# VL: QFVLTQPNSVSTNLGSTVKLSCRRSSGNIGNNYVNWYRQHEGRSPTTMIYRDDTRPDGVPNRFSGSIDRSSNSALLTINNVRPEDEAYYFCQSYSGSIYIFGGGTKLTVL
# B5: 33-0503E (antibody, IgG2b, V domains shown)
# VH: EVQLVESGGGLVRPGGSMKLSCGASGFIFDNYYMTWVRQAPTKGLEWVASISSSGGNTYYRDSVRGRFTISRDNAGNTLSLQMGSLRAEDTATYHCAKEGYRGRYFDYWGQGVMVTVSS
# VL: QVVLTQPNSVSTNLGSTVKLSCKRTTGNIGSNYVNWYQQHEGRSPTTMIYRDDERPDGVPDRFSGSIDRSSNSALLTINNVQTEDEAEYFCQSYSSGIIFGGGTKLTVL
# B6: 94-1311E (antibody, V domains shown)
# VH: EVQLQQSGAGLVRPRTSVRLSCKISGDSITAYYVHFVKQRPGQGLEWIGRIDPEDDSTKYSEKFKNKATLTADVSSSTAYLILSSLTSDDSATYFCSTLTGLDYWGQGVMVTVSS
# VL: DIQMTQSPPVLSASVGDRVTLSCKASQSVHNKLDWYQQKHGEAPKLLIYYTHNLQTGIPSRFSGSGSGSDYTLTISSLRAEDVATYYCFQYYSGWTFGGGTKLEMKR
# B7: 83-1110B (antibody, IgG2b, V domains shown)
# VH: EVQLQQSGPEFVRPGTSVKFSCKVSGGSITSYFIHFVKQRPGQGLEWIGKIDPEDDSTKYGEKFKNKATLTADTSSNTAFLKLSSLTSEDTAIYFCTTLTGLDYWGQGVMVTVSS
# VL: DIQMTQSPPVLSAAVGDRVTLSCKASRSLNKNLDWYQQKHGETPKLLIYHTHNLQTGIPSRFSGSGSDTDYTLTISSLQTEDVATYYCYQYHSGWTFGGGTRLELRR
# B8: 64-0807A (antibody, IgG2b, V domains shown)
# VH: EVQVVESGGGLVQPGRSMKLSCAALGFTFRDYYMAWVRQTPTKGLEWVAAISTGGGNTYYRDSVKGRFTISRDNAKSTLYLQMDSLRSDDTATYYCARNPYGNYFDYWGQGVMVTVSS
# VL: QFVLSQPNSVSTNLGSTVKLSCKRSTGNIGSNYVHWYQRHEGRSPTTLIYRDDKRPNGVPDRFSGSIDRSSNSALLTINNVQTEDEADYFCQSYSGGMYLFGGGTKLTVL
# B9: 84-1111F (antibody, IgG2b, V domains shown)
# VH: B8 VH with Q82K
# VL: B8 VL with L48M, K106T
# Biological target: T1, mouse SPNS2 (mouse, UniProt Q91VM4 1-549)
# T1 sequence: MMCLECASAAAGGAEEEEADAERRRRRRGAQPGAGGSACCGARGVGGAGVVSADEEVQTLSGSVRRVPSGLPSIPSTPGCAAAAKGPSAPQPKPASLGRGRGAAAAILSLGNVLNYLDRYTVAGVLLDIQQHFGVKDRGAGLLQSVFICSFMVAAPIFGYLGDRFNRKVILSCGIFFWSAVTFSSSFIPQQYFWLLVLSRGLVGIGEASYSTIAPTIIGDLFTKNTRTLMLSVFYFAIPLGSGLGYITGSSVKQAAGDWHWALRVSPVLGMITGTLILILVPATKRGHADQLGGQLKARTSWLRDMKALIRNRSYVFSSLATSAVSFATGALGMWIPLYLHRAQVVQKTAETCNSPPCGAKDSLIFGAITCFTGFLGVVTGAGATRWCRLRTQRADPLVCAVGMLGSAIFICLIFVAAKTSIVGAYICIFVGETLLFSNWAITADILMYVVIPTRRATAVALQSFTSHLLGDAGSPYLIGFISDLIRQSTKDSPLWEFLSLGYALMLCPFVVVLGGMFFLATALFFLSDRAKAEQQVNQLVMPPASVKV
# Test: cell-based or functional assay
row,Binder,"pIC50, S1P transport inhibition (LC-MS/MS of S1P)"
1,B1,8 pIC50 (M)
2,B2,7.7 pIC50 (M)
3,B3,8.2 pIC50 (M)
4,B4,7.8 pIC50 (M)
5,B5,7.7 pIC50 (M)
6,B6,8.2 pIC50 (M)
7,B7,8.1 pIC50 (M)
8,B8,7.7 pIC50 (M)
9,B9,8.3 pIC50 (M)

# Biological target: T2, human SPNS2 (human, UniProt Q8IVW8 1-549)
# T2 sequence: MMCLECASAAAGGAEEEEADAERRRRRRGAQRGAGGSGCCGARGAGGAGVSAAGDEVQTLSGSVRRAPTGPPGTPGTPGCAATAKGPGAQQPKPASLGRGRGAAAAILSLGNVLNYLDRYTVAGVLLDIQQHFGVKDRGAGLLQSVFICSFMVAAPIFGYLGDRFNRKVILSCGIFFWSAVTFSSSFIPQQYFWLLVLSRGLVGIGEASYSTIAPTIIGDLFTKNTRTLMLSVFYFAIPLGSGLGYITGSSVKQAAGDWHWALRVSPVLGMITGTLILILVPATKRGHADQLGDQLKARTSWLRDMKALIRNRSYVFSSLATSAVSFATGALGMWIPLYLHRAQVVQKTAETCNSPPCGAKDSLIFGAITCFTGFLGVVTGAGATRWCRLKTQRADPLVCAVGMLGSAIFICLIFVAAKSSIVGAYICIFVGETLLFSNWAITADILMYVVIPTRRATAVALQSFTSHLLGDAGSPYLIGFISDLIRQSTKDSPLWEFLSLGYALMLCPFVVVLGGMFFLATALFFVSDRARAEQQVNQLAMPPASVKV
# Test: cell-based or functional assay
row,Binder,"pIC50, S1P transport inhibition (LC-MS/MS of S1P)"
1,B1,7.7 pIC50 (M)
2,B2,7 pIC50 (M)
3,B3,7.6 pIC50 (M)
4,B4,7.4 pIC50 (M)
5,B5,7.4 pIC50 (M)
6,B6,7.9 pIC50 (M)
7,B7,7.9 pIC50 (M)
8,B8,7.5 pIC50 (M)
9,B9,8.1 pIC50 (M)

# Biological target: T1, mouse SPNS2
# Test: Cell ELISA
# Method: (§1) Human and mouse SPNS2 and human SphK1 double stable expression Flp-in 293 cells were added to a poly D lysine coat 96-well plate (Corning, 356461) in a density of 1×10⁵ cells/well and was cultivated overnight, and then the culture medium was removed. An anti-SPNS2 antibody solution was adjusted into 20 μg/mL using 0.2% FBS/3% BSA/PBS, and 0.2% FBS/3% BSA/PBS (60 μL) was added to the antibody diluted solution (20 μL) to prepare seven-step diluted solutions by four fold serial dilution. Each diluted solution of the anti-SPNS2 antibody was added in a volume of 30 μL/well, and reacted for about one hour at room temperature. The antibody solution was removed, and the residue was washed with PBS containing 0.05% Tween 20 (PBS-T) two times, and fixed for about ten minutes at room temperature using 10% buffered formalin (Mildform (Trade mark) 10NM, Wako). After washing with PBS-T one time, a 5000-fold diluted solution of anti-rat IgG antibody HRP conjugate (Southern Biotech, 3030-05) in 0.2% FBS/3% BSA/PBS was added to each well (30 μL), and reacted for about one hour at room temperature. After washing with PBS-T four times, a substrate (TMB; 3, 3′, 5, 5′-tetramethylbenzidin) was added to each well (100 μL) to initiate the reaction. After 20 minutes, 2N sulfuric acid was added to each well (100 μL), and absorbance at 450 nm and 550 nm was measured. […] Each antibody bound to human SPNS2 and mouse SPNS2.
Binder,Emax [absorbance],pEC50
B1,1.61,8.32 pEC50 (M)
B2,1.78,7.42 pEC50 (M)
B3,1.61,8.29 pEC50 (M)
B4,1.54,8.15 pEC50 (M)
B5,2.2,7.66 pEC50 (M)
B6,1.52,8.2 pEC50 (M)
B7,1.59,8.17 pEC50 (M)
B8,1.88,7.83 pEC50 (M)
B9,1.55,8.65 pEC50 (M)

# Biological target: T2, human SPNS2
# Test: Cell ELISA
# Method: as §1
Binder,Emax [absorbance],pEC50
B1,1.83,8.47 pEC50 (M)
B2,1.86,7.76 pEC50 (M)
B3,1.64,8.56 pEC50 (M)
B4,1.7,8.36 pEC50 (M)
B5,2.03,8.12 pEC50 (M)
B6,1.61,8.34 pEC50 (M)
B7,1.6,8.32 pEC50 (M)
B8,1.83,8.07 pEC50 (M)
B9,1.68,8.75 pEC50 (M)

# Biological target: T3, Mutant 3 of human SPNS2 (FLAG tag inserted in extracellular loop 7) (human, UniProt Q8IVW8 1-549)
# T3 construct: on HEK293 cells; also called extracellular loop 7 mutant
# T3 sequence: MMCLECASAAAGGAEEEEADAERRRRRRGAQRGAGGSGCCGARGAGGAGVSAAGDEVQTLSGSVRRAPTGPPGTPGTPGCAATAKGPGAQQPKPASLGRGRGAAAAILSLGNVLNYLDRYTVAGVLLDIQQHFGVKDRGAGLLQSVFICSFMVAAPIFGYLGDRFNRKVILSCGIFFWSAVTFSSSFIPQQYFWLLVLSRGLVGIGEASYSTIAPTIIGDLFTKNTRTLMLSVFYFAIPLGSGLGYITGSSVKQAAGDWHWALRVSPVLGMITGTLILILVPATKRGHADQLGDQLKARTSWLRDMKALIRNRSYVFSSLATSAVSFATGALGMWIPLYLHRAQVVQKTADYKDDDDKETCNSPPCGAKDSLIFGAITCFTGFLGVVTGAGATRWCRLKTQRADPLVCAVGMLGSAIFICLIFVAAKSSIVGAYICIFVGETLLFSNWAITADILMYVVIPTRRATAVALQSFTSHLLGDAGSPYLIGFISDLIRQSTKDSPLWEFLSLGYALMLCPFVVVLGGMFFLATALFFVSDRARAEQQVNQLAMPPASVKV
# Test: flow cytometry, FLAG-insertion mutant
# Method: After the lipofection, the HEK 293 cells cultivated overnight were recovered from the culture dishes, and reacted with a cell staining buffer (BioLegend, 420201) containing an anti-FLAG antibody (Sigma-Aldrich, F1804) and an anti-SPNS2 antibody each in a volume of 20 μg/mL for 30 minutes at room temperature. After washing with a cell staining buffer one time, the anti-FLAG antibody was detected with an anti-mouse IgG-Alexa 647 conjugate antibody, and the anti-SPNS2 antibody was detected with an anti-rat IgG-FITC conjugate antibody with flow cytometer BD LSR Fortessa (Becton Dickinson). The binding ability to each mutant was evaluated with the ratio of the FITC-positive cell rate to the Alexa 647-positive cell rate. In Table 7, symbol (+) indicates a ratio of less than 0.1, symbol (±) indicates a ratio of 0.1 or more and less than 0.5, and symbol (−) indicate a ratio of 0.5 or more.
row,Binder,FITC+/Alexa 647+ cell rate ratio [ratio]
1,B1,≥ 0.5
2,B2,≥ 0.5
3,B3,≥ 0.5
4,B4,≥ 0.5
5,B5,≥ 0.5
6,B6,≥ 0.5
7,B7,≥ 0.5
8,B8,≥ 0.5
9,B9,≥ 0.5
